Target: the molecule itself
Assay: crystal structure

B1: Mycobacterium tuberculosis Rv2498c, β-hydroxyacyl-CoA lyase/thioesterase (enzyme)
chain: MNLRAAGPGWLFCPADRPERFAKAAAAADVVILDLEDGVAEAQKPAARNALRDTPLDPERTVVRINAGGTADQARDLEALAGTAYTTVMLPKAESAAQVIELAPRDVIALVETARGAVCAAEIAAADPTVGMMWGAEDLIATLGGSSSRRADGAYRDVARHVRSTILLAASAFGRLALDAVHLDILDVEGLQEEARDAAAVGFDVTVCIHPSQIPVVRKAYRPSHEKLAWARRVLAASRSERGAFAFEGQMVDSPVLTHAETMLRRAGEATSE
notes: also called β-HAClyase/thioesterase; CitE-like
stoichiometry N: 3
